Laboratory results published in article PMC10770124, “Cryo-EM structures of human SID-1 transmembrane family proteins and implications for their low-pH-dependent RNA transport activity” (Cell Research, 2023).

B1: human SIDT1, full-length (purified, used for cryo-EM and blue native gel) (natural protein, UniProt Q9NXL6 20-827, looked up)
chain: ASPGHPAKSPRQPPAPRRDPFDAARGADFDHVYSGVVNLSTENIYSFNYTSQPDQVTAVRVYVNSSSENLNYPVLVVVRQQKEVLSWQVPLLFQGLYQRSYNYQEVSRTLCPSEATNETGPLQQLIFVDVASMAPLGAQYKLLVTKLKHFQLRTNVAFHFTASPSQPQYFLYKFPKDVDSVIIKVVSEMAYPCSVVSVQNIMCPVYDLDHNVEFNGVYQSMTKKAAITLQKKDFPGEQFFVVFVIKPEDYACGGSFFIQEKENQTWNLQRKKNLEVTIVPSIKESVYVKSSLFSVFIFLSFYLGCLLVGFVHYLRFQRKSIDGSFGSNDGSGNMVASHPIAASTPEGSNYGTIDESSSSPGRQMSSSDGGPPGQSDTDSSVEESDFDTMPDIESDKNIIRTKMFLYLSDLSRKDRRIVSKKYKIYFWNIITIAVFYALPVIQLVITYQTVVNVTGNQDICYYNFLCAHPLGVLSAFNNILSNLGHVLLGFLFLLIVLRRDILHRRALEAKDIFAVEYGIPKHFGLFYAMGIALMMEGVLSACYHVCPNYSNFQFDTSFMYMIAGLCMLKLYQTRHPDINASAYSAYASFAVVIMVTVLGVVFGKNDVWFWVIFSAIHVLASLALSTQIYYMGRFKIDLGIFRRAAMVFYTDCIQQCSRPLYMDRMVLLVVGNLVNWSFALFGLIYRPRDFASYMLGIFICNLLLYLAFYIIMKLRSSEKVLPVPLFCIVATAVMWAAALYFFFQNLSSWEGTPAESREKNRECILLDFFDDHDIWHFLSATALFFSFLVLLTLDDDLDVVRRDQIPVF
modifications: N-glycosylation (three sites resolved in the EM map); disulfide bonds C130-C222 and C212-C271
notes: SIDT1, human, full-length; Homodimer in the cryo-EM map; the self rows mean protomer with protomer; also called SID-1 transmembrane family member 1; source: cloned, expressed and purified
B2: human SIDT2, full-length (purified, used for cryo-EM and blue native gel) (natural protein, UniProt Q8NBJ9 19-832, looked up)
chain: HLGVLGPKNVSQKDAEFERTYVDEVNSELVNIYTFNHTVTRNRTEGVRVSVNVLNKQKGAPLLFVVRQKEAVVSFQVPLILRGMFQRKYLYQKVERTLCQPPTKNESEIQFFYVDVSTLSPVNTTYQLRVSRMDDFVLRTGEQFSFNTTAAQPQYFKYEFPEGVDSVIVKVTSNKAFPCSVISIQDVLCPVYDLDNNVAFIGMYQTMTKKAAITVQRKDFPSNSFYVVVVVKTEDQACGGSLPFYPFAEDEPVDQGHRQKTLSVLVSQAVTSEAYVSGMLFCLGIFLSFYLLTVLLACWENWRQKKKTLLVAIDRACPESGHPRVLADSFPGSSPYEGYNYGSFENVSGSTDGLVDSAGTGDLSYGYQGRSFEPVGTRPRVDSMSSVEEDDYDTLTDIDSDKNVIRTKQYLYVADLARKDKRVLRKKYQIYFWNIATIAVFYALPVVQLVITYQTVVNVTGNQDICYYNFLCAHPLGNLSAFNNILSNLGYILLGLLFLLIILQREINHNRALLRNDLCALECGIPKHFGLFYAMGTALMMEGLLSACYHVCPNYTNFQFDTSFMYMIAGLCMLKLYQKRHPDINASAYSAYACLAIVIFFSVLGVVFGKGNTAFWIVFSIIHIIATLLLSTQLYYMGRWKLDSGIFRRILHVLYTDCIRQCSGPLYVDRMVLLVMGNVINWSLAAYGLIMRPNDFASYLLAIGICNLLLYFAFYIIMKLRSGERIKLIPLLCIVCTSVVWGFALFFFFQGLSTWQKTPAESREHNRDCILLDFFDDHDIWHFLSSIAMFGSFLVLLTLDDDLDTVQRDKIYVF
modifications: N-glycosylation (six sites on the ECD resolved in the EM map); disulfide bonds
notes: SIDT2, human, full-length; Homodimer in the cryo-EM map; the self rows mean protomer with protomer; also called SID-1 transmembrane family member 2; source: cloned, expressed and purified

Experiments:
[1] = biological target: truncated extracellular domain of SIDT2 (SIDT2^ECD) (human); assay: AUC; sedimentation velocity (SV-AUC) of the truncated ECDs in solution, no RNA
[2] = biological target: the molecule itself; assay: cryo-EM structure; single-particle cryo-EM of SIDT1 (3.33 Å) and SIDT2 (3.17 Å); homodimers with a two-fold axis

| Molecule | stoichiometry N [1] | stoichiometry N [2] |
| --- | --- | --- |
| truncated extracellular domain of SIDT2 (SIDT2^ECD) (domain or fragment) | 2 |  |
| B1 |  | 2 |
| B2 |  | 2 |
